From publication PMC8200818, “SPECT/CT Imaging, Biodistribution and Radiation Dosimetry of a ^177Lu-DOTA-Integrin αvβ6 Cystine Knot Peptide in a Pancreatic Cancer Xenograft Model” (Frontiers in Oncology, 2021)

Columns and labels:
in vivo = details: female, mouse, iv, 1 MBq, total radioactivity; for tissue uptake at 24 h / tissue uptake at 72 h / tissue uptake at 48 h / tissue uptake at 192 h: athymic NMRI-Foxn1^nu/Foxn1^nu
Excerpt: (§1) For in vivo experiments, at least 8-week-old female athymic NMRI-Foxn1^nu/Foxn1^nu mice (Janvier Labs, Saint-Berthevin, France) were used. Animal care followed institutional guidelines and all experiments were approved by local animal research authorities. For the generation of tumor xenografts, 5 x 10^6 cells of Capan-2 cells were inoculated subcutaneously into the left and right shoulder (1:1 phosphate-buffered saline [PBS]/Matrigel Basement Membrane Matrix High Concentration, Corning, Corning, USA). Tumors were allowed to grow for two to four weeks (tumor volume > 100 mm^3) after cell inoculation.
(§2) Radiolabeling of the DOTA-integrin αvβ6 knottin was carried out manually using [^177Lu]LuCl3 and a reagent kit from ITG Isotope Technologies Garching GmbH (Garching, Germany). A total of 40 µL (stock solution of peptide at 1 µg/µL in 10% DMSO in water) was added to 500 µL of ascorbate buffer solution pH 5.0, prepared from the kit (composition not disclosed by vendor) and the resulting mixture was then added to 35 µL of [^177Lu]LuCl3 (2 GBq in aqueous 0.04 M HCl) and the reaction mixture was heated at 80 °C for 35 minutes followed by cooling for 10 minutes at room temperature. The product was then diluted with 0.5 mL of saline and the pH was adjusted to 7 using a 1 M aqueous solution of NaHCO3 prior to injection in mice. A reverse-phase HPLC system (Knauer GmbH, Germany) with a column (Eurospher II, C18, 250 × 4 mm) was used to determine the radiochemical purity of the radiotracer. The HPLC system was equipped with an Azura P.6.1L pump coupled with ultraviolet (Azura UVD 2.1L) and radiometric (γ-Raytest-Isotopenmessgeraete GmbH, Germany) detectors. The gradient elution system used mobile phase A (100% acetonitrile) and mobile phase B (deionized H2O containing 0.1% trifluoroacetic acid) and a flow rate of 1.0 mL/min. Starting with 0% A and 100% B, the gradient was increased to 100% A over 25 min and finally returned to initial gradient conditions within 5 min.
Tumor-bearing mice (n=4-5 per time point) were injected with approximately 1 MBq (22 pmol) of ^177Lu-DOTA-integrin αvβ6 knottin to the tail vein via a catheter. Mice (n=4-5 per time point) were sacrificed and dissected one, two, three and eight days post injection. Tumor, blood, stomach, pancreas, small intestine, colon, liver, spleen, kidney, heart, lung, muscle and femur samples were weighed and uptake of radioactivity was measured by a gamma counter.

Capan-2 xenografts = system: Capan-2 xenografts
Excerpt: as §1, §2
SPECT and CT imaging were performed using the nanoSPECT/CTplus scanner (Mediso, Hungary/Bioscan, France). […]

[1] = NMRI-Foxn1^nu/Foxn1^nu (athymic nude), tumor/pancreas

With `CC[C@H](C)[C@@H]1NC(=O)[C@@H](NC(=O)CNC(=O)CN2CCN(CC(=O)O)CCN(CC(=O)O)CCN(CC(=O)O)CC2)CSSC[C@@H]2NC(=O)[C@H](C)NC(=O)CNC(=O)[C@@H]3CCCN3C(=O)[C@@H]3CSSC[C@@H](C(=O)NCC(=O)O)NC(=O)[C@H](Cc4ccc(O)cc4)NC(=O)CNC(=O)[C@H](CC(N)=O)NC(=O)CNC(=O)[C@H](CCCNC(=N)N)NC(=O)[C@H](CSSC[C@H](NC(=O)[C@H](CCCNC(=N)N)NC(=O)[C@H](Cc4ccccc4)NC(=O)[C@H](CC(C)C)NC(=O)[C@H](CC(C)C)NC(=O)[C@H]([C@@H](C)O)NC(=O)CNC(=O)[C@H](CC(C)C)NC(=O)[C@H](CC(=O)O)NC(=O)[C@H]([C@@H](C)O)NC(=O)[C@H](CCCNC(=N)N)NC(=O)CNC(=O)[C@H](CC(N)=O)NC(=O)[C@H](CC(C)C)NC1=O)C(=O)N[C@@H](CCCNC(=N)N)C(=O)N[C@@H](CCCNC(=N)N)C(=O)N[C@@H](CC(=O)O)C(=O)N[C@@H](CO)C(=O)N[C@@H](CC(=O)O)C(=O)N3)NC(=O)[C@H]([C@@H](C)CC)NC2=O` [^177Lu-DOTA-integrin αvβ6 knottin, metal not drawn] the tissue to tissue ratio at 72 h (in vivo; [1]) was 27, the tissue to tissue ratio at 192 h (in vivo; [1]) was 38.7 and the tissue uptake at 24 h (in vivo; blood, Blood activity, 24 h p.i., ~1 MBq i.v., nude mice, Capan-2 xenografts, mean ± SD (4 ≤ n ≤ 5)) was 0.01 %ID/g. The tissue uptake at 72 h (in vivo; blood, Blood activity, 72 h p.i., ~1 MBq i.v., nude mice, Capan-2 xenografts, mean ± SD (4 ≤ n ≤ 5)) was 0.01 %ID/g, the tissue uptake at 24 h (in vivo; femur, Femur uptake, 24 h p.i., ~1 MBq i.v., nude mice, Capan-2 xenografts, mean ± SD (4 ≤ n ≤ 5)) was 0.3 %ID/g and the tissue uptake at 48 h (in vivo; femur, Femur uptake, 48 h p.i., ~1 MBq i.v., nude mice, Capan-2 xenografts, mean ± SD (4 ≤ n ≤ 5)) was 0.45 %ID/g. For the same compound, the tissue uptake at 72 h (in vivo; femur, Femur uptake, 72 h p.i., ~1 MBq i.v., nude mice, Capan-2 xenografts, mean ± SD (4 ≤ n ≤ 5)) was 0.13 %ID/g, the tissue uptake at 192 h (in vivo; femur, Femur uptake, 192 h p.i., ~1 MBq i.v., nude mice, Capan-2 xenografts, mean ± SD (4 ≤ n ≤ 5)) was 0.07 %ID/g and the tissue uptake at 24 h (in vivo; heart, Heart uptake, 24 h p.i., ~1 MBq i.v., nude mice, Capan-2 xenografts, mean ± SD (4 ≤ n ≤ 5)) was 0.16 %ID/g. It also gave a tissue uptake at 48 h (in vivo; heart, Heart uptake, 48 h p.i., ~1 MBq i.v., nude mice, Capan-2 xenografts, mean ± SD (4 ≤ n ≤ 5)) of 0.07 %ID/g, a tissue uptake at 72 h (in vivo; heart, Heart uptake, 72 h p.i., ~1 MBq i.v., nude mice, Capan-2 xenografts, mean ± SD (4 ≤ n ≤ 5)) of 0.08 %ID/g and a tissue uptake at 192 h (in vivo; heart, Heart uptake, 192 h p.i., ~1 MBq i.v., nude mice, Capan-2 xenografts, mean ± SD (4 ≤ n ≤ 5)) of 0.04 %ID/g. The tissue uptake at 24 h (in vivo; kidney, Kidney uptake, 24 h p.i., ~1 MBq i.v., nude mice, Capan-2 xenografts, mean ± SD (4 ≤ n ≤ 5)) was 19.2 %ID/g, the tissue uptake at 48 h (in vivo; kidney, Kidney uptake, 48 h p.i., ~1 MBq i.v., nude mice, Capan-2 xenografts, mean ± SD (4 ≤ n ≤ 5)) was 12.5 %ID/g and the tissue uptake at 72 h (in vivo; kidney, Kidney uptake, 72 h p.i., ~1 MBq i.v., nude mice, Capan-2 xenografts, mean ± SD (4 ≤ n ≤ 5)) was 14.7 %ID/g. For the same compound, the tissue uptake at 192 h (in vivo; kidney, Kidney uptake, 192 h p.i., ~1 MBq i.v., nude mice, Capan-2 xenografts, mean ± SD (4 ≤ n ≤ 5)) was 2.28 %ID/g, the tissue uptake at 24 h (in vivo; kidney, Kidney uptake, day 1 p.i., ~1 MBq i.v., Capan-2 xenograft mice) was 19.2 ± 2.5 %ID/g and the tissue uptake at 72 h (in vivo; kidney, Kidney uptake, day 3 p.i., ~1 MBq i.v., Capan-2 xenograft mice) was 14.7 ± 4.5 %ID/g. For the same compound, the tissue uptake at 192 h (in vivo; kidney, Kidney uptake, day 8 p.i., ~1 MBq i.v., Capan-2 xenograft mice) was 2.3 ± 0.4 %ID/g, the tissue uptake at 24 h (in vivo; lung, Lung uptake, 24 h p.i., ~1 MBq i.v., nude mice, Capan-2 xenografts, mean ± SD (4 ≤ n ≤ 5)) was 1.74 %ID/g and the tissue uptake at 48 h (in vivo; lung, Lung uptake, 48 h p.i., ~1 MBq i.v., nude mice, Capan-2 xenografts, mean ± SD (4 ≤ n ≤ 5)) was 0.53 %ID/g. For the same compound, the tissue uptake at 72 h (in vivo; lung, Lung uptake, 72 h p.i., ~1 MBq i.v., nude mice, Capan-2 xenografts, mean ± SD (4 ≤ n ≤ 5)) was 0.52 %ID/g, the tissue uptake at 192 h (in vivo; lung, Lung uptake, 192 h p.i., ~1 MBq i.v., nude mice, Capan-2 xenografts, mean ± SD (4 ≤ n ≤ 5)) was 0.06 %ID/g and the tissue uptake at 24 h (in vivo; muscle, Muscle uptake, 24 h p.i., ~1 MBq i.v., nude mice, Capan-2 xenografts, mean ± SD (4 ≤ n ≤ 5)) was 0.26 %ID/g. It also gave a tissue uptake at 48 h (in vivo; muscle, Muscle uptake, 48 h p.i., ~1 MBq i.v., nude mice, Capan-2 xenografts, mean ± SD (4 ≤ n ≤ 5)) of 0.11 %ID/g, a tissue uptake at 72 h (in vivo; muscle, Muscle uptake, 72 h p.i., ~1 MBq i.v., nude mice, Capan-2 xenografts, mean ± SD (4 ≤ n ≤ 5)) of 0.1 %ID/g and a tissue uptake at 192 h (in vivo; muscle, Muscle uptake, 192 h p.i., ~1 MBq i.v., nude mice, Capan-2 xenografts, mean ± SD (4 ≤ n ≤ 5)) of 0.04 %ID/g. The tissue uptake at 24 h (in vivo; pancreas, Pancreas uptake, 24 h p.i., ~1 MBq i.v., nude mice, Capan-2 xenografts, mean ± SD (4 ≤ n ≤ 5)) was 0.65 %ID/g, the tissue uptake at 48 h (in vivo; pancreas, Pancreas uptake, 48 h p.i., ~1 MBq i.v., nude mice, Capan-2 xenografts, mean ± SD (4 ≤ n ≤ 5)) was 0.17 %ID/g and the tissue uptake at 72 h (in vivo; pancreas, Pancreas uptake, 72 h p.i., ~1 MBq i.v., nude mice, Capan-2 xenografts, mean ± SD (4 ≤ n ≤ 5)) was 0.29 %ID/g. The tissue uptake at 192 h (in vivo; pancreas, Pancreas uptake, 192 h p.i., ~1 MBq i.v., nude mice, Capan-2 xenografts, mean ± SD (4 ≤ n ≤ 5)) was 0.03 %ID/g, the tissue uptake at 192 h (in vivo; spleen, Spleen uptake, 192 h p.i., ~1 MBq i.v., nude mice, Capan-2 xenografts, mean ± SD (4 ≤ n ≤ 5)) was 0.04 %ID/g and the tissue uptake at 24 h (in vivo; stomach, Stomach uptake, 24 h p.i., ~1 MBq i.v., nude mice, Capan-2 xenografts, mean ± SD (4 ≤ n ≤ 5)) was 1.92 %ID/g. The tissue uptake at 48 h (in vivo; stomach, Stomach uptake, 48 h p.i., ~1 MBq i.v., nude mice, Capan-2 xenografts, mean ± SD (4 ≤ n ≤ 5)) was 1.01 %ID/g, the tissue uptake at 72 h (in vivo; stomach, Stomach uptake, 72 h p.i., ~1 MBq i.v., nude mice, Capan-2 xenografts, mean ± SD (4 ≤ n ≤ 5)) was 0.83 %ID/g and the tissue uptake at 192 h (in vivo; stomach, Stomach uptake, 192 h p.i., ~1 MBq i.v., nude mice, Capan-2 xenografts, mean ± SD (4 ≤ n ≤ 5)) was 0.14 %ID/g. It also gave a tissue uptake at 24 h (in vivo; tail, Tail activity, 24 h p.i., ~1 MBq i.v., nude mice, Capan-2 xenografts, mean ± SD (4 ≤ n ≤ 5)) of 0.31 %ID/g, a tissue uptake at 48 h (in vivo; tail, Tail activity, 48 h p.i., ~1 MBq i.v., nude mice, Capan-2 xenografts, mean ± SD (4 ≤ n ≤ 5)) of 0.2 %ID/g and a tissue uptake at 24 h (in vivo; tumor, Tumor uptake, 24 h p.i., ~1 MBq (22 pmol) i.v., nude mice, Capan-2 xenografts, mean ± SD (4 ≤ n ≤ 5)) of 3.13 %ID/g. For the same compound, the tissue uptake at 24 h (in vivo; tumor, Tumor uptake, day 1 p.i., ~1 MBq i.v., Capan-2 xenografts, mean ± S.E.M.) was 3.1 ± 0.6 %ID/g, the tissue uptake at 48 h (in vivo; tumor, Tumor uptake, day 2 p.i., ~1 MBq i.v., Capan-2 xenografts, mean ± S.E.M.) was 2.5 ± 0.4 %ID/g and the tissue uptake at 72 h (in vivo; tumor, Tumor uptake, day 3 p.i., ~1 MBq i.v., Capan-2 xenografts, mean ± S.E.M.) was 3.5 ± 0.9 %ID/g. The tissue uptake at 192 h (in vivo; tumor, Tumor uptake, day 8 p.i., ~1 MBq i.v., Capan-2 xenografts, mean ± S.E.M.) was 1.2 ± 0.2 %ID/g, the “Tracer accumulation (SPECT MIP)” value (Capan-2 xenografts; 22 h p.i., 62 MBq i.v.) was “accumulation of ^177Lu-DOTA-integrin αvβ6 knottin in both the tumors and the kidneys” and the “Uptake by other organs (SPECT)” value (Capan-2 xenografts; 22 h p.i., 62 MBq i.v.) was “low or moderate”. The “Initial kidney accumulation (SPECT)” value (Capan-2 xenografts; kidney versus tumor, up to 3 h p.i.) was “higher initial accumulation”.
